# From patent US20060233788A1 (published 2006)
# Where a chain is given by its changes, count along the chain named. No end group written: not given here. *: point of attachment. Octanoyl = CCCCCCCC(=O)*
# B1: Fab 1181 (Fab, V domains shown)
# VH: QVQLQQSGAELVRSGASVKLSCTASGFNIKDYFMQWVKQRPEQGLEWIGWIDPENGETGYAPKFQGKATMTADTASNTAYLQLSSLTSEDTALYYCNAPSVVAKYFDVWGAGTTVTVSS
# VL: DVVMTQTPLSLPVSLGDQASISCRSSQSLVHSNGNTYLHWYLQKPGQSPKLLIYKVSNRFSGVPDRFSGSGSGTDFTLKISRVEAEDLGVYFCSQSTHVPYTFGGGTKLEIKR
# notes: Mouse Fab from an Omniclonal library (Biosite); kappa light chain (detected and captured with goat anti-mouse kappa); the HCVR amino acid entry is 12
# B2: Fab 1621 (Fab, V domains shown)
# VH: B1 VH with M34V, Y95F
# VL: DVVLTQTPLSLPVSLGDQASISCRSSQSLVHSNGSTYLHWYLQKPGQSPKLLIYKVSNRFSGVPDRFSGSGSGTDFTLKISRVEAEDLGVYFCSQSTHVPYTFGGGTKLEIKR
# notes: Mouse Fab, kappa light chain
# B3: Ghrelin (1-8, desacyl) (peptide)
# peptide: GSSFLSPE
# notes: also called hGhrelin (1-8 desacyl)
# B4: full-length human ghrelin (1-28) acylated with an octanoyl group on the serine at position 3 (peptide)
# peptide: GSSFLSPEHQRVQQRKESKKPPAKLQPX
# modifications: octanoyl group on the serine at position 3
# notes: the 1-28 form has Arg at 28; also called hGhrelin; acylated hGhrelin
# B5: Ghrelin (1-8 acyl) (peptide)
# peptide: GSS(Octanoyl)FLSPE
# notes: also called hGhrelin (1-8 acyl); Human 1-8 acyl
# B6: full-length, acylated rat ghrelin (peptide, UniProt Q9QYH7 24-51, looked up)
# peptide: GSSFLSPEHQKAQQRKESKKPPAKLQPR
# modifications: also: acylated (position and acyl group not given here)
# notes: mature; The UniProt entry is the precursor; the assay used the ghrelin peptide; also called rGhrelin
# B7: Ghrelin (9-28) (peptide)
# peptide: HQRVQQRKESKKPPAKLQPR
# notes: also called hGhrelin (9-28)
# B8: Human 1-13 acyl (peptide)
# peptide: GSSFLSPEHQRVQ
# modifications: also: acyl (position and group not restated)
# notes: also called human ghrelin 1-13 acyl; active human ghrelin analog
# B9: Fab 4641 (Fab, V domains shown)
# VH: QVQLQQSRPELVRPGASVKMSCRASAYTFTTYWMHWVRQRPGQGLEWIGMIDPSNSDTWLNQKFKDKATLNVDRSSNTAYMQLTSLTSEDSAVYYCARTGFDYWGQGTTLTVSS
# VL: DVVMTQTPLSLPVSLGDQASISCRSSQSLVHSDGNTYLHWYLQKPGQSPKLLIYKVSNRFSGVPDRFSGSGSGTDFTLKISRVEAEDLGVYFCSQSTYVSYTFGGGTKLEIKR
# notes: Mouse Fab
# B10: Fab 1451 (Fab, V domains shown)
# VH: B9 VH with Q3H, L4V, Q5K, R8G, R23K, R38K, S54Y, D57E, Q82K, T84S
# VL: B9 VL with M4L, D33N, Y98H, S100P
# notes: Mouse Fab
# Assays:
# [1] = target: T1, human ghrelin peptide spanning amino acids 4-20 (human); assay: cell-based or functional assay
# T1 peptide: FLSPEHQRVQQRKESKK
# [2] = target: T2, human ghrelin peptide 4-16 (human); assay: cell-based or functional assay
# T2 peptide: FLSPEHQRVQQRK
# [3] = target: T3, human ghrelin peptide 4-28 (human); assay: cell-based or functional assay
# T3 peptide: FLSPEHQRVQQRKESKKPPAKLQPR
# [4] = target: B4; assay: cell-based or functional assay
# [5] = target: T4, human ghrelin peptide 13-19 (human); assay: FLIPR assay, peptide competes with hGhrelin for the Fab
# T4 peptide: QQRKESK
# [6] = target: T5, human ghrelin peptide 7-16 (human); assay: as above
# T5 peptide: PEHQRVQQRK
# Ghrelin (9-28) = target: B7; assay: as above
# [7] = target: T6, human ghrelin peptide 18-28 (human); assay: as above
# T6 peptide: SKKPPAKLQPR
# [8] = target: T7, full-length human ghrelin not acylated (human); assay: SPR (BIAcore 2000), Fab captured on goat anti-mouse kappa, ghrelin in solution, 25 C
# T7 construct: also called hGhrelin (desacyl); des-acyl hGhrelin
# Protocol: (§1) The BIAcore® utilizes the optical properties of surface plasmon resonance to detect alterations in protein concentration of interacting molecules within a dextran biosensor matrix. Except where noted, all reagents and materials are purchased from BIAcore® AB (Upsala, Sweden). All measurements are performed at 25° C. Samples containing rat or human ghrelin (full length, acylated) are dissolved in HBS-EP buffer (150 mM sodium chloride, 3 mM EDTA, 0.005% (w/v) surfactant P-20, and 10 mM HEPES, pH 7.4). A capture antibody, goat anti-mouse Kappa (Southern Biotechnology, Inc), is immobilized onto flow cells using amine-coupling chemistry. Flow cells (1-4) are activated for 7 minutes with a 1:1 mixture of 0.1 M N-hydroxysuccinimide and 0.1 M 3-(N,N-dimethylamino)propyl-N-ethylcarbodiimide at a flow rate of 10 μl/min. Goat anti-mouse Kappa (30 μg/mL in 10 mM sodium acetate, pH 4.5) is manually injected over all 4 flow cells at a flow rate of 10 μL/min. The surface density is monitored and additional goat anti-mouse Kappa is injected if needed to individual cell until all flow cells reach a surface density of 4500-5000 response units (RU). Surfaces are blocked with a 7 minute injection of 1 M ethanolamine-HCl, pH 8.5(10 μl/min). To ensure complete removal of any noncovalently bound goat anti-mouse Kappa, 15 μL of 10 mM glycine, pH 1.5 is injected twice. Running buffer used for kinetic experiments contained 10 mM HEPES, pH 7.4, 150 mM NaCl, 0.005% P20.
# (§2) Collection of kinetic binding data is performed at maximum flow rate (100 μL/min) and a low surface density to minimize mass transport effects.
# [9] = target: B4; assay: as above
# Protocol: as §1, §2
# [10] = target: B6; assay: as above
# Protocol: as §1, §2
# Ghrelin (1-8 acyl) = target: B5; assay: competitive ELISA on coated BSA-hGhrelin
# Protocol: (§3) The plate was incubated at 4° C. overnight. The wells are aspirated and washed twice with washing buffer (20 mM Tris-Cl, pH 7.4, 0.15 M NaCl, 0.1% Tween 20). Compounds (i.e., human ghrelin or ghrelin analogs) are diluted into antibody solution. […] The compound concentration is varied as listed in Tables 2-5 below, but the Fab concentration is kept constant at 0.1 μg/ml in blocking solution (10 mg/ml BSA in wash buffer). […] The plates are incubated for 1 hour at room temperature. The wells are then washed three times with washing buffer.
# (§4) Peroxidase-conjugated secondary antibody (50 μl goat anti-mouse kappa HRP (Southern Biotech), diluted 1:2000 in blocking buffer) is added to each well and incubated for 1 hour at room temperature. The wells are then washed 4 times with washing buffer. Fifty microliters of chromogenic substrate (i.e., OPD substrate) is added to each well and allowed to develop at room temperature for 10 minutes. The reaction is stopped by adding 100 μl 1N HCl to each well. The absorbance of the wells is read at 490 nm.
# Ghrelin (1-8, desacyl) = target: B3; assay: FLIPR assay, peptide competes with hGhrelin for the Fab (no reduction means the Fab does not bind the peptide)
# Fab 1181 [11] = target: B1; assay: competitive ELISA, Fab 1181 on coated BSA-hGhrelin; compound 5 ug/ml
# Protocol: as §3, §4
# (§5) The average absorbance from triplicate wells is determined.
# Target sequence in this assay (VL, as listed by the source, chain 2 of 2, one chain of several): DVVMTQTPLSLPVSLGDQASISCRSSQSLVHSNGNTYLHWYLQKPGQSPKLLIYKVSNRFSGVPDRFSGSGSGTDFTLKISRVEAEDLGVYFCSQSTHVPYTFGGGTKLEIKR
# Fab 1621 [12] = target: B2; assay: competitive ELISA, Fab 1621 on coated BSA-hGhrelin; compound 1 ug/ml
# Protocol: as §3, §4, §5
# Target sequence in this assay (VH, as listed by the source limits assumed, chain 1 of 2): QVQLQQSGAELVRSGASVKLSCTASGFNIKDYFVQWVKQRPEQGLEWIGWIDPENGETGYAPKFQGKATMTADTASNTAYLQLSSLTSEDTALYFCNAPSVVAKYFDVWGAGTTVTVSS
# Target sequence in this assay (VL, as listed by the source limits assumed, chain 2 of 2): as the sequence (VL, as listed by the source, chain 2 of 2, one chain of several) above, with M4L, N35S counted along it
# Fab 1621 [13] = target: B2; assay: competitive ELISA, Fab 1621 on coated BSA-hGhrelin; compound 5 ug/ml
# Protocol: as §3, §4, §5
# Target sequence in this assay (VH, as listed by the source limits assumed, chain 1 of 2): as the sequence (VH, as listed by the source limits assumed, chain 1 of 2) above
# Target sequence in this assay (VL, as listed by the source limits assumed, chain 2 of 2): as the sequence (VL, as listed by the source, chain 2 of 2, one chain of several) above, with M4L, N35S counted along it
# Fab 1621 [14] = target: B2; assay: competitive ELISA, Fab 1621 on coated BSA-hGhrelin; compound 0.2 ug/ml
# Protocol: as §3, §4, §5
# Target sequence in this assay (VH, as listed by the source limits assumed, chain 1 of 2): as the sequence (VH, as listed by the source limits assumed, chain 1 of 2) above
# Target sequence in this assay (VL, as listed by the source limits assumed, chain 2 of 2): as the sequence (VL, as listed by the source, chain 2 of 2, one chain of several) above, with M4L, N35S counted along it
# Fab 1181 [15] = target: B1; assay: competitive ELISA, Fab 1181 on coated BSA-hGhrelin; compound 1 ug/ml
# Protocol: as §3, §4, §5
# Target sequence in this assay (VL, as listed by the source, chain 2 of 2, one chain of several): as the sequence (VL, as listed by the source, chain 2 of 2, one chain of several) above
# Fab 1621 [16] = target: B2; assay: competitive ELISA, Fab 1621 on coated BSA-hGhrelin; compound 0 (baseline, no compound)
# Protocol: as §3, §4, §5
# Target sequence in this assay (VL, as listed by the source limits assumed): as the sequence (VL, as listed by the source, chain 2 of 2, one chain of several) above, with M4L, N35S counted along it
# Fab 1181 [17] = target: B1; assay: competitive ELISA, Fab 1181 on coated BSA-hGhrelin; compound 0 (baseline, no compound)
# Protocol: as §3, §4, §5
# Fab 1181 [18] = target: B1; assay: competitive ELISA, Fab 1181 on coated BSA-hGhrelin; compound 0.2 ug/ml
# Protocol: as §3, §4, §5
# Target sequence in this assay (VL, as listed by the source, chain 2 of 2, one chain of several): as the sequence (VL, as listed by the source, chain 2 of 2, one chain of several) above
# [19] = target: T8, GHS-R1a human ghrelin receptor (human, UniProt Q92847 1-366); assay: FLIPR calcium assay, AV12 cells expressing human GHS-R1a
# T8 construct: whole, on cells; also called GHS-1a receptor; growth hormone secretagogue receptor
# [20] = target: T9, peptide spanning amino acids 14-28 of human ghrelin (human); assay: FLIPR assay, peptide competes with hGhrelin for the Fab (Fab 5 nM)
# T9 peptide: QRKESKKPPAKLQPR
# Protocol: (§6) The final concentration of the sample solution is 0.75% BSA, and calcium at approximately the same concentration as in the FLIPR buffer. Fifty microliters of the sample solution is added to the 50 μl FLIPR buffer in the well with the AV12 cells. […] The cell plate is shaken for 15 seconds prior to loading it into the FLIPR instrument. Test samples or control samples are added to each well, and read by a Fluorometric Imaging Plate Reader (Molecular Devices).
# [21] = target: T9, peptide spanning amino acids 14-28 of …; assay: FLIPR assay, peptide competes with hGhrelin for the Fab (Fab 20 nM)
# Protocol: as §6
# T8 sequence (Q92847 whole entry): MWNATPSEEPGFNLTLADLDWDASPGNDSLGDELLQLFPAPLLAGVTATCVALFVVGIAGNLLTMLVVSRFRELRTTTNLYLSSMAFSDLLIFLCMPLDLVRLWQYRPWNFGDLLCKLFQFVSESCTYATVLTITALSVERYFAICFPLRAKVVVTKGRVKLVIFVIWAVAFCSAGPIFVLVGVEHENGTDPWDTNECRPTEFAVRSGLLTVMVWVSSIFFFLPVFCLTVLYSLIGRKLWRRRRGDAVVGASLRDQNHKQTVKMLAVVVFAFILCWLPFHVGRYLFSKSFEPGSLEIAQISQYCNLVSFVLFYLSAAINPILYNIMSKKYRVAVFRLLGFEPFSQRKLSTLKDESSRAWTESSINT
Binder,Ave. OD (Fab 1181 [11]),Ave. OD (Fab 1621 [12]),Ave. OD (Fab 1621 [13]),Ave. OD (Fab 1621 [14]),Ave. OD (Fab 1181 [15]),Ave. OD (Fab 1621 [16]),Ave. OD (Fab 1181 [17]),Ave. OD (Fab 1181 [18]),other results
B1,,,,,,,,,"reduction of Fab inhibition of hGhrelin (0.83 nM), FLIPR calcium assay; peptide 100 nM, Fab 0.95 nM [1]: 74%; reduction of Fab inhibition of hGhrelin (0.83 nM), FLIPR calcium assay; peptide 100 nM, Fab 0.95 nM [2]: 30%; reduction of Fab inhibition of hGhrelin (0.83 nM), FLIPR calcium assay; peptide 100 nM, Fab 0.95 nM [3]: 80%; IC50 (nM), Inhibition of hGhrelin at 0.8 nM, FLIPR calcium assay [4]: 0.8 nM; binding result [5]: no binding (tested: 100 nM peptide); binding result [6]: no binding (tested: 100 nM peptide); binding result (Ghrelin (9-28)): no binding (tested: 100 nM peptide); binding result [7]: no binding (tested: 100 nM peptide); Kd [8]: 0.434 nM; Kd [9]: 0.202 nM; kon [9]: 3.39e+06 M⁻¹ s⁻¹; Kd [10]: 10.4 nM; binding result (Ghrelin (1-8 acyl)): no binding (tested: 5 µg/ml); binding result (Ghrelin (1-8, desacyl)): no binding (tested: 100 nM peptide)"
B2,,,,,,,,,"IC50 (nM), Inhibition of hGhrelin at 0.8 nM, FLIPR calcium assay [4]: 1.64 nM; binding result [5]: no binding (tested: 100 nM peptide); binding result [6]: no binding (tested: 100 nM peptide); binding result (Ghrelin (9-28)): no binding (tested: 100 nM peptide); binding result [7]: no binding (tested: 100 nM peptide); Kd [8]: 1.74 nM; Kd [9]: 0.68 nM; Kd [10]: 5.7 nM; binding result (Ghrelin (1-8 acyl)): no binding (tested: 5 µg/ml); binding result (Ghrelin (1-8, desacyl)): no binding (tested: 100 nM peptide)"
B3,1.18 OD,1.33 OD,1.26 OD,1.38 OD,1.19 OD,1.17 OD,1.23 OD,1.22 OD,
B4,0.0445 OD,0.0495 OD,0.043 OD,0.131 OD,0.0497 OD,1.17 OD,1.23 OD,0.0784 OD,
B5,1.21 OD,1.32 OD,1.22 OD,1.36 OD,1.22 OD,1.17 OD,1.23 OD,1.26 OD,
B6,0.178 OD,0.932 OD,0.429 OD,0.999 OD,0.883 OD,1.17 OD,1.23 OD,1.12 OD,binding result [19]: binds
B7,1.11 OD,1.05 OD,1.02 OD,1.04 OD,1.17 OD,1.17 OD,1.23 OD,1.13 OD,
B8,,,,,,,,,binding result [19]: binds
B9,,,,,,,,,binding result [20]: no binding (tested: 100 nM peptide)
B10,,,,,,,,,binding result [21]: no binding (tested: 100 nM peptide)
